# From a protein production outcome set (Wang et al. 2014)
# Assay: label from the status in PepcDB records
row,Sequence,protein production
1,MSLAEPRYKADIGGGSLKLPESRIIAGLLLEGVTEDQWRHAIEVENVLQRRSPGTAKRQSSLMRNRLETMGPELWQMVRDGSTQVAIQAVFAAAIKHSTLLGDFLDLVVRDQFRMFRPDLPRKMWDQYLEQCRNRDPLMPVWQDSTANKLADCVYRILVEVGYITDSKTYRLKSVRISGEVMSYLRENNEQYVIRCIQVSIEGHHHHHH,not failed
2,MENMIVIMAGGRSSRMGAEKPILKVNGKPMILRVYEESTKVGETLVAISKNTPKTRELCIKEGIPLIETPGEGYVEDVRYLLKELGSFVSVSADLPFVKACDIAEVKKAFDGKTSLTGVLPLSKVPTDLRPVVYKGYVIVGLNGVGFEGEKFYELSNPLLALNVNTPEELKLANRIAKLIGLEHHHHHH,failed
3,MAIGSLSSLGLGSKVLNYDVIDKLKDADEKALIAPLDKKMEQNVEKQKALVEIKTLLSALKGPVKTLSDYSTYISRKSNVTGDALSASVGVGVPIQDIKVDVQNLAQGDI,failed
4,MFLPKFNPIRSFSPILRAKTLLRYQNRMYLSTEIRKAIEDAIESAPVVLFMKGTPEFPKCGFSRATIGLLGNQGVDPAKFAAYNVLEDPELREGIKEFSEWPTIPQLYVNKEFIGGCDVITSMARSGELADLLEEAQALVPEEEEETKDR,failed
5,MKFCSQCGGEVILRIPEGDTLPRYICPKCHTIHYQNPKVIVGCIPEWENKVLLCKRAIAPYRGKWTLPAGFMENNETLVQGAARETLEEANARVEIRELYAVYSLPHISQVYMLFRAKLLDLDFFPGIESLEVRLFGEQEIPWNDIAFRVIHDPLKRYMEERHHGQPAFHLGIINKPQAGSNSNE,not failed
6,MYSYADRIRAVALYIKLGLRVRATIRQLGYPTKNALKGWYQHYLKHQDLPASQAPRAPKYSLQQRQVAIAHYLAHDRCIAATMRALGYPGRGTLTAWVRQDCPDTCKSRVGRSWPATKPDALMCEGVVQLCARRSSAQQIADKLGVCRGTLYNWKNQLLGPCAPASMKHSPKRSPVLDEAALRRQVESLRQDVRRLKIERELLKQAHEILKNGADIDLHRLANKDKAVLVEALHGQYELPELLSLVGLARSSYFYHRARLKLADKYVDLRRSITEIFDNNYRCYGYRRVQASLLKECTGISEKVVRRLMKQEGLIVAKPKRRRYNSYLGEIGAAPQNLINRDFRAAAPNEKWLTDITELQIPAGKVYLSPVIDCFDGLVVSWSIGTHPNAHLVNTMLDAAIDAVQGSESRPVIHSDRGAHYRWPGWLSRVHDAKLTRSMSRKGCSPDNAACEGFFGRLKMELFYPNNWQSTTIEQFIEAVDAYIRWYNEKRIKVSLGRLSPVEYRHKLGLAA,failed
7,MKVVVVDGGGLMGVETALCVRDHGHEVALVQAPGDPHAPLSDEVAEALRGCSVLVDLAHQPSVDIGTLAEDHGLVVDEAALVDSWAGSTGALLRAGAAAGVRHHVCLSVVGVDRIGREGVFRALRNREAMARRSGIPYSILRATQTFDAAEDIATAATEDWIVWVPPAEVRPVSLTDVATLLAHTAVTRPVNGVREIAGPEQFRLDAFVRTALLTEAEYRQVRTDALSPFYGARLRPRDLLPGPDAFIARTTYREWFTGRPAPDTTS,failed
8,MVQFQNTLIKFHALSFKNANLIYNAKLNKTCYKENSNTIILRIKMLTQEDVLNALKTIIYPNFEKDIVSFGFVKNITLHDDQLGLLIEIPSSSEETSAILRENISKAMQEKGVKALNLDIKTPPKPQAPKPTTKNLAKNIKHVVMISSGKGGVGKSTTSVNLSIALANLNQKVGLLDADVYGPNIPRMMGLQSADVIMDPSGKKLIPLKAFGVSVMSMGLLYDEGQSLIWRGPMLMRAIEQMLSDIIWGDLDVLVVDMPPGTGDAQLTLAQAVPLSAGITVTTPQIVSLDDAKRSLDMFKKLHIPIAGIVENMGSFVCEHCKKESEIFGSNSMSELLEAYHTQILAKLPLEPKVRLGGDRGEPIVISHPNSVSAKIFEKMAQDLSAFLERVKKEKLADNKDIQPTQTHACSH,failed
9,MNTDNPKSHISRIAYPAIIVFLILTLLGSLVERFHPFTSWLTPPVALLMGLAYALIFGSTHRRANKLGSKVLLQYSVVGLGFGMNLGESLASGRDGMMFTIISVFGTLLLGWFIGRKILQMNRNTSALISAGTAICGGSAIAAVGPILKAEEHEMSVALGTVFLLNAVALFIFPSIGHWLALDQQQFGTWAAIAIHDTSSVVGAGSAYGEEALRVATTIKLTRALWIVPLTLVFSFVYKTKGAKRFPVPLFILFFIGAIILNTYLLEAYFPEVGRFVASLARKGLTLSLFFIGASLTKEVIASVGVRALLQGLFLWILISVGSLAFILLI,failed
10,MHSQASNPSATPEPETPNAAGGKRSVFAVILGNAVEFFDFGVYATFAVMIGHTFFPSDSAFVSLMLSVTAFGVGFIVRPLGAVLIGAYADRVGRKPAMLLTLVMMAVGTGSIAILPSYESIGIAAPILLVLTRLIQGLAWGGEAGPATTYILEAAPAHKRGTYACWQVVAQGVAAMAAGTVGYTLTQVLSPEDLNSWGWRVPFVFGLLVLPIGIYIRRNLAETFHGQGETASTGSLVRQVFGEHRRALVLGLLILSGSTITQYFINYMTTFALTELKLPTSISMLSTLVAGAAMAVCAIAGGMLCDRFGRRTILMAPRVVLLLVLFPALQLMTEHPSPTTFLLTLAVLSGLHGMSGAALIVLLVESFPKAVRSTGFSIVYAFGVAAFGGTAQIIITWLIGTTGNPMSPVGYLLVANLVCLTAAWFAKETRPQAPGRSNPGQRLAEARAR,failed
11,MTTYTFDQVEEAIEQLYPDFTINTIEISGEGNDCIAYEINGNFIFKFPKHSRASINLLNEVTVLKTIHNELSLPIPEVVFTGMPSEMCQMSFAGFTKIKGVPLTPLLLKNLPKQSQDQAAKDLARFLSELHSINISGFKSNLVLDFREKINEDNKKIKKLLSRELKGHQMKKVDDFYRDILDNEIYFKYYPCLIHNDFSSDHILFDTEKNTICGIIDFGDAAISDPDNDFISLMEDDEEYGMEFVSKILNHYKHKDIPTVLEKYMMKEKYWSFEKIIYGKEYGYMDWYEEGLNEIRSIKIK,not failed
12,MKGRLLQRLRQLSISNSLRGAFLTGALLTLIVSMVSLYSWHEQSSQVRYSLDEYFPRIHSAFLIEGNLNLAVDQLNEFLLAPNTTVRLQLRTQIIQHLDKIERLSQGLQLAERRQLAVILQDSRTLLAELDNALYNMFLVREKVSELSARIDWLHDDFTTELNSLVQDFTWQQGTLLDQIEANQGDAAQYLQRSREVQNEQQQVYTLARIENQIVDDLRDRLNELKSGNNDGMLVETHIRYLENLKKTADENIRALDDWPSTITLRQTIDELLEIGMVKNKMPDTMRDYVAAQKALLDASRAREATLGRFRTLLEAQLGSSHQQMQTFNQRLEQIVRVSGGLILVTTLLALLLAWGLNHYFIRSRLVKRFTALNQAVVQIGLGRTDSTIPVYGRDELGRIARLLRHTLGQLNMQRRQLEQEVAERKEIEADLRAMQDELIQTAKLAVVGQTMTTLAHEINQPLNALSMYLFTAGRAIEQGQSGQARNTLTKAEGLINRIDAIIRSLRQFTRRAELETPLYPVDLRQTFVAAWELLAMRHQSRQGALSLPTDTVWVSGDEVRIQQVLVNVLANALDACSHDAAIAVTWQTQGEALEVYIADNGPGWPGALLPSLLKPFTTSKAVGLGIGLSISVSLMAQMKGDLRLASTLTRNACVVLQFSVTDVDDVE,failed
13,MDVTWTVKYITEFVGTALLIIMGNGAVANVELKGTKAHAQSWMIIGWGYGLGVMLPAVAFGNITSQINPAFTLGLAASGLFPWAHVAQYIIAQVLGAMFGQLLIVMVYRPYYLKTQNPNAILGTFSTIDNVDDNDKKTRLGATINGFLNEFVGSFVLFFGAVAATNIFFGSQSITWMTNYLKGQGADVSSSDIMNQIWVQASGASASKMVAHLFLGFLVMGLVVALGGPTGPGLNPARDFGPRLVHSLLPKSVLGEAKGSSKWWYAWVPVLAPILASLAAVALFKMIYL,failed
14,MTIMTARFASILLGGCLAASLFSGPVFAVGNDNSTMPTCKKGEIYDQKTKKCVKQQSANVSDENRTDYAYSLAKAGRYEEALAMLDTVKDQNSAEVLNYRGYATRKLGRTDEGISYYLQSVKMDPQYAKVREYLGEAYVIKGRLDLAKEQLTTIKAICGTACEEYQDLNAAILNPSKI,failed
15,VWWQLHYGPHPDERELDLEGWTTRVLDATRDAVAIRQRAAVDVGVLLSGGVDSSLLVGLLREVGVDDLSTFSIGFEDAGGERGDEFQYSDLIAKHYGTRHHQLRIAEHEIIDQLPAAFRAMSEPMVSHDCIAFYLLSREVAKHCKGVQSGQGADELFAGYHWYPQVDGADDAYAAYREAFFDRSHAEYRDTVQAPWLLETDAAGDFVREHFARPGAPAAVDKALRLDSTVMLVDDPVKRVDNMTMAWGLEARTPFLDYRLVELSARIPARFKLPDGGKQVLKQAARRVIPHEVIDRKKGYFPVPGLKHLEGATLGWVRELLTDPSQDRGLFNPTMLDRLLSNPHGQLTPLRGSKLWQLAALNLWLS,failed
16,GKRSHSMKRNPNAPVTKAGWLFKQASSGVKQWNKRWFVLVDRCLFYYKDEKEESILGSIPLLSFRVAAVQPSDNISRKHTFKAEHAGVRTYFFSAESPEEQEAWIQAMGEAARVQ,not failed
17,MDKPILKDSMKLFEALGTIKSRSMFGGFGLFADETMFALVVNNQLHIRADQQTSSDFETQGLKPYVYKKRGFPVVTKYYAISSELWESSDRLIEVAKKSLENAKLEKEQQASTKPNRLKDLPNLRLATERMLKKAGIDSVAQLEEEGALSAYKAIRDTHSTTVSLELLWALEGAINGTHWSVVPQSRREELMNGLS,not failed
18,AIAPDSLYDSLECLSEKIEAEGLYTTFSSDKLVRRIKRSSETEKIILSRFLRARRFNVDSAFDSFLACLKFREAENVNSVGLDEFKNPLATFPFTTTGFCTFDGEPLLYGRASALDRFKIDPAIFHRGFISFLEFLGDTFEPSTMFVIIFDFTDFSPIRNVHFGCARDMLKVMQDFYPERLSKIFLVNYPSTLYGVYKIVSPFIDENTRSKLEWIPKNSLEQLLRYVSMEAIPYSIGGMAVYPVPPLSSQ,failed
19,VKLVEEYIAANWNESLTIEKLVELTGMSARTVFKAFQRTRGYSPMAFAKRVRMERVRQLLLEAGGDASVGAIAVQCGFPHLGHFAKDYRKTFGENPSDTLARGRRFRGVR,not failed
20,MMANHLVKPDNRNCKRPRELESPVPDSPQLSSLGKSDSSFSEISGLFYKDEALEKDLNDVSKEINLMLSTYAKLLSERAAVDASYIDEIDELFKEANAIENFLIQKREFLRQRFTVIANTLHR,failed
21,MTSVTDRSAHSAERSTEHTIDIHTTAGKLAELHKRREESLHPVGEDAVEKVHAKGKLTARERIYALLDEDSFVELDALAKHRSTNFNLGEKRPLGDGVVTGYGTIDGRDVCIFSQDATVFGGSLGEVYGEKIVKVQELAIKTGRPLIGINDGAGARIQEGVVSLGLYSRIFRNNILASGVIPQISLIMGAAAGGHVYSPALTDFVIMVDQTSQMFITGPDVIKTVTGEEVTMEELGGAHTHMAKSGTAHYAASGEQDAFDYVRELLSYLPPNNSTDAPRYQAAAPTGPIEENLTDEDLELDTLIPDSPNQPYDMHEVITRLLDDEFLEIQAGYAQNIVVGFGRIDGRPVGIVANQPTHFAGCLDINASEKAARFVRTCDCFNIPIVMLVDVPGFLPGTDQEYNGIIRRGAKLLYAYGEATVPKITVITRKAYGGAYCVMGSKDMGCDVNLAWPTAQIAVMGASGAVGFVYRQQLAEAAANGEDIDKLRLRLQQEYEDTLVNPYVAAERGYVDAVIPPSHTRGYIGTALRLLERKIAQLPPKKHGNVPL,not failed
22,MPASCQETARLLLRAPTLDDLPQACAIHGDPQTNRFNPNGPINAAACADKLHGWIEHWQQHGFGYWAIALRSDPQRLIGFGGIMQGFFGHEPGLNLYFRLRPEAWGQGYAAEMARAALHLAFSELHAPRVTGLVRPDNLPSRRALERLGLSLDGELDDFPGQAPSLLYRISAPDNPVPG,failed
